Reference: PMC8122577, “Estrogen-Related Receptor Influences the Hemolymph Glucose Content by Regulating Midgut Trehalase Gene Expression in the Last Instar Larvae of Bombyx mori”

T1: BmERR DBD (Bombyx mori, UniProt A0A1B1M0R7 103-178)
T1 sequence: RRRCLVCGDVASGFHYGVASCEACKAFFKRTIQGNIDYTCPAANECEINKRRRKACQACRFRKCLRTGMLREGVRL

B1: ERRE-like CRE 1 (dsDNA)
DNA 1: GGGTTCTGACCTCGGAGGG
DNA 2: CCCTCCGAGGTCAGAACCC
B2: ERRE-like CRE 2 (dsDNA)
DNA 1: CATTGGTGACCTACATGGC
DNA 2: GCCATGTAGGTCACCAATG
B3: ERRE-like CRE 4 (dsDNA)
DNA 1: CGATACAAGGTCAACGAGA
DNA 2: TCTCGTTGACCTTGTATCG
B4: ERRE-like CRE 6 (dsDNA)
DNA 1: GCCTACAAGGGCAATAAAA
DNA 2: TTTTATTGCCCTTGTAGGC

Key:
BmERR DBD [1] = molecular target: T1, BmERR DBD; assay: EMSA; inhibited by competitive probe; EMSA (Beyotime chemiluminescent kit), 25 °C 20 min; 5% native PAGE in 45 mM Tris-borate, 1 mM EDTA pH 8.3; binding buffer not given; conditions: protein: recombinant; label: 3'-end biotin; blunt
BmERR DBD [2] = molecular target: T1, BmERR DBD; assay: EMSA; dose-dependent; reduced by anti-BmERR antibody or competitive probe; EMSA (Beyotime chemiluminescent kit), 25 °C 20 min; 5% native PAGE in 45 mM Tris-borate, 1 mM EDTA pH 8.3; binding buffer not given; conditions: protein: recombinant; label: 3'-end biotin; blunt

Binder | binding result (BmERR DBD [1]) | binding result (BmERR DBD [2])
B1 | binds | 
B2 | binds | 
B3 |  | binds
B4 | binds | 
